The record followed here is the supplement of paper PMC9112550, “Optimization of the antimicrobial peptide Bac7 by deep mutational scanning” (BMC Biology, 2022).
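Note: peptides expressed intracellularly from a pBAD plasmid library in pooled LB shake-flask culture, induced with 0.3% L-arabinose, DNA abundance read by NGS, three biological replicates, DESeq2 with apeglm shrinkage.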

The series concerns Escherichia coli TOP10. Briefly: shrunken log2 fold change of peptide-encoding DNA abundance (4.5 h post-induction vs induction); higher = less antimicrobial activity (less host growth inhibition). The note with it: time post-induction: 4.5 h; library: site-saturation at positions 5, 18, 19, 20.
With RRIRSRPPRLPRPRPRPADVPRP, the “shrunken log2 fold change” value was 0.438.

With RRIRMRPPRLPRPRPRPMVWPRP, the “shrunken log2 fold change” value was 1.09.

Turning to RRIRFRPPRLPRPRPRPEMAPRP, the “shrunken log2 fold change” value was determined as 0.635.

In the case of RRIRDRPPRLPRPRPRPQIKPRP, the “shrunken log2 fold change” value worked out at 0.0877.

Consider RRIRCRPPRLPRPRPRPWHTPRP, for which the “shrunken log2 fold change” value is -0.261.

For the sequence RRIRDRPPRLPRPRPRPTQMPRP, the “shrunken log2 fold change” value worked out at 0.583.

Regarding RRIRKRPPRLPRPRPRPWKMPRP, the “shrunken log2 fold change” value stood at 0.0749.

In the case of RRIRIRPPRLPRPRPRPADAPRP, the “shrunken log2 fold change” value is -0.291.

As for RRIRCRPPRLPRPRPRPNEHPRP, the “shrunken log2 fold change” value was -0.553.

For the sequence RRIRGRPPRLPRPRPRPGCGPRP, the “shrunken log2 fold change” value amounted to 1.31.

As to RRIRARPPRLPRPRPRPNGFPRP, the “shrunken log2 fold change” value came out at 0.113.

RRIRDRPPRLPRPRPRPTLDPRP: the “shrunken log2 fold change” value is 0.784.

In the case of RRIRTRPPRLPRPRPRPAPFPRP, the “shrunken log2 fold change” value came to 0.0263.

Consider RRIRDRPPRLPRPRPRPVTIPRP, for which the “shrunken log2 fold change” value is -0.0184.

With RRIRNRPPRLPRPRPRPLENPRP, the “shrunken log2 fold change” value was -0.0075.

Turning to RRIRLRPPRLPRPRPRPLCMPRP, the “shrunken log2 fold change” value is -0.467.

Turning to RRIRRRPPRLPRPRPRPFQKPRP, the “shrunken log2 fold change” value is -0.0282.

Consider RRIRIRPPRLPRPRPRPWDGPRP, for which the “shrunken log2 fold change” value is -0.094.

On to RRIRSRPPRLPRPRPRPESRPRP, for which the “shrunken log2 fold change” value is -0.0244.

In the case of RRIRHRPPRLPRPRPRPYDEPRP, the “shrunken log2 fold change” value was -0.0392.

RRIRTRPPRLPRPRPRPFETPRP: the “shrunken log2 fold change” value is -0.117.

For RRIRVRPPRLPRPRPRPNGIPRP, the “shrunken log2 fold change” value is -0.161.

Regarding RRIRRRPPRLPRPRPRPERMPRP, the “shrunken log2 fold change” value turned out to be 0.222.

Regarding RRIRYRPPRLPRPRPRPSDTPRP, the “shrunken log2 fold change” value is -1.27.

Consider RRIRTRPPRLPRPRPRPHRRPRP, for which the “shrunken log2 fold change” value came out at 0.0892.

On to RRIRFRPPRLPRPRPRPHGSPRP, for which the “shrunken log2 fold change” value is -0.0241.

Consider RRIRYRPPRLPRPRPRPEQMPRP, for which the “shrunken log2 fold change” value was 0.195.

For the sequence RRIRWRPPRLPRPRPRPWMNPRP, the “shrunken log2 fold change” value is -0.287.

On to RRIRNRPPRLPRPRPRPTIEPRP, for which the “shrunken log2 fold change” value came to 0.0325.

Take RRIRFRPPRLPRPRPRPWWFPRP: the “shrunken log2 fold change” value was -0.395.

In the case of RRIRKRPPRLPRPRPRPSQDPRP, the “shrunken log2 fold change” value was 0.107.

As for RRIRLRPPRLPRPRPRPHMNPRP, the “shrunken log2 fold change” value was -0.686.

In the case of RRIRRRPPRLPRPRPRPAAGPRP, the “shrunken log2 fold change” value is 0.326.

As for RRIRYRPPRLPRPRPRPHRNPRP, the “shrunken log2 fold change” value is -0.745.

Turning to RRIRIRPPRLPRPRPRPVNLPRP, the “shrunken log2 fold change” value was -0.116.

Turning to RRIRHRPPRLPRPRPRPTPEPRP, the “shrunken log2 fold change” value was -0.0453.

Take RRIRVRPPRLPRPRPRPWLCPRP: the “shrunken log2 fold change” value was -0.144.

Regarding RRIRQRPPRLPRPRPRPKIFPRP, the “shrunken log2 fold change” value came to 0.041.

In the case of RRIRVRPPRLPRPRPRPAKYPRP, the “shrunken log2 fold change” value is -0.575.

As to RRIRARPPRLPRPRPRPSYYPRP, the “shrunken log2 fold change” value was -0.731.

In the case of RRIRERPPRLPRPRPRPWNNPRP, the “shrunken log2 fold change” value was -0.653.

As for RRIRDRPPRLPRPRPRPKIEPRP, the “shrunken log2 fold change” value was -0.305.

Consider RRIRWRPPRLPRPRPRPLCPPRP, for which the “shrunken log2 fold change” value was 0.0748.

RRIRERPPRLPRPRPRPTAVPRP: the “shrunken log2 fold change” value is -0.113.

RRIRMRPPRLPRPRPRPPIGPRP: the “shrunken log2 fold change” value turned out to be 0.161.

Turning to RRIRIRPPRLPRPRPRPGWAPRP, the “shrunken log2 fold change” value amounted to 0.22.

RRIRMRPPRLPRPRPRPQTIPRP: the “shrunken log2 fold change” value was determined as 0.414.

Take RRIRDRPPRLPRPRPRPWEPPRP: the “shrunken log2 fold change” value is -1.35.

On to RRIRDRPPRLPRPRPRPKLQPRP, for which the “shrunken log2 fold change” value worked out at 0.08.

RRIRERPPRLPRPRPRPHTWPRP: the “shrunken log2 fold change” value is -0.33.

For RRIRHRPPRLPRPRPRPCVAPRP, the “shrunken log2 fold change” value was determined as 0.0478.

Consider RRIRERPPRLPRPRPRPYQQPRP, for which the “shrunken log2 fold change” value was -0.228.

Turning to RRIRRRPPRLPRPRPRPHQVPRP, the “shrunken log2 fold change” value came out at 0.1.

As to RRIRVRPPRLPRPRPRPFLDPRP, the “shrunken log2 fold change” value is -0.187.

With RRIRCRPPRLPRPRPRPCIRPRP, the “shrunken log2 fold change” value was -0.145.

For RRIRCRPPRLPRPRPRPDQWPRP, the “shrunken log2 fold change” value was -0.197.

RRIRTRPPRLPRPRPRPNFAPRP: the “shrunken log2 fold change” value was found to be 0.00158.

For the sequence RRIRERPPRLPRPRPRPCTLPRP, the “shrunken log2 fold change” value was -0.407.

For the sequence RRIRSRPPRLPRPRPRPGAKPRP, the “shrunken log2 fold change” value stood at 0.513.

For RRIRLRPPRLPRPRPRPCRFPRP, the “shrunken log2 fold change” value is -0.226.

As to RRIRERPPRLPRPRPRPPFGPRP, the “shrunken log2 fold change” value is 0.577.

With RRIRSRPPRLPRPRPRPVHWPRP, the “shrunken log2 fold change” value came to 0.138.

In the case of RRIRLRPPRLPRPRPRPALWPRP, the “shrunken log2 fold change” value was found to be 0.754.

With RRIRARPPRLPRPRPRPVNYPRP, the “shrunken log2 fold change” value is -0.476.

For the sequence RRIRYRPPRLPRPRPRPRLRPRP, the “shrunken log2 fold change” value was found to be 0.0744.

As to RRIRHRPPRLPRPRPRPGRTPRP, the “shrunken log2 fold change” value amounted to 0.208.

Regarding RRIRYRPPRLPRPRPRPNMGPRP, the “shrunken log2 fold change” value was -0.00101.

Consider RRIRWRPPRLPRPRPRPINMPRP, for which the “shrunken log2 fold change” value is -0.328.

Consider RRIRARPPRLPRPRPRPKIGPRP, for which the “shrunken log2 fold change” value is 0.458.

Consider RRIRVRPPRLPRPRPRPNDAPRP, for which the “shrunken log2 fold change” value is -0.231.

For the sequence RRIRARPPRLPRPRPRPVNCPRP, the “shrunken log2 fold change” value is 1.04.

Regarding RRIRDRPPRLPRPRPRPYWNPRP, the “shrunken log2 fold change” value was -0.602.

Take RRIRNRPPRLPRPRPRPMSLPRP: the “shrunken log2 fold change” value was -0.0381.

Regarding RRIRMRPPRLPRPRPRPMILPRP, the “shrunken log2 fold change” value is -0.0491.

Turning to RRIRERPPRLPRPRPRPRYLPRP, the “shrunken log2 fold change” value is -0.452.

As to RRIRVRPPRLPRPRPRPNEPPRP, the “shrunken log2 fold change” value turned out to be 0.097.

Regarding RRIRVRPPRLPRPRPRPLATPRP, the “shrunken log2 fold change” value was 0.309.

Turning to RRIRPRPPRLPRPRPRPIKMPRP, the “shrunken log2 fold change” value is 0.0328.

As for RRIRVRPPRLPRPRPRPEQMPRP, the “shrunken log2 fold change” value amounted to 0.212.

Turning to RRIRHRPPRLPRPRPRPYFSPRP, the “shrunken log2 fold change” value was -0.129.

Take RRIRARPPRLPRPRPRPPVCPRP: the “shrunken log2 fold change” value worked out at 0.276.

In the case of RRIRARPPRLPRPRPRPTHGPRP, the “shrunken log2 fold change” value is 0.644.

Take RRIRLRPPRLPRPRPRPFNKPRP: the “shrunken log2 fold change” value was -0.324.

For RRIRQRPPRLPRPRPRPMCKPRP, the “shrunken log2 fold change” value is -0.0652.

Consider RRIRDRPPRLPRPRPRPPYMPRP, for which the “shrunken log2 fold change” value is -0.464.

Take RRIRFRPPRLPRPRPRPWFTPRP: the “shrunken log2 fold change” value is -0.574.

As to RRIRGRPPRLPRPRPRPTEHPRP, the “shrunken log2 fold change” value was determined as 0.569.

Take RRIRHRPPRLPRPRPRPEPAPRP: the “shrunken log2 fold change” value was 1.48.

Regarding RRIRARPPRLPRPRPRPEIHPRP, the “shrunken log2 fold change” value came out at 0.756.

Take RRIRFRPPRLPRPRPRPCEVPRP: the “shrunken log2 fold change” value is -0.0179.

With RRIRTRPPRLPRPRPRPFDEPRP, the “shrunken log2 fold change” value was -0.206.

For RRIRHRPPRLPRPRPRPIPSPRP, the “shrunken log2 fold change” value was -0.274.

For RRIRNRPPRLPRPRPRPHEMPRP, the “shrunken log2 fold change” value is -0.33.

As for RRIRDRPPRLPRPRPRPRYIPRP, the “shrunken log2 fold change” value is -0.356.

For the sequence RRIRVRPPRLPRPRPRPCVKPRP, the “shrunken log2 fold change” value is -0.657.

On to RRIRRRPPRLPRPRPRPYLCPRP, for which the “shrunken log2 fold change” value is -0.404.

As for RRIRERPPRLPRPRPRPEMSPRP, the “shrunken log2 fold change” value was 0.0528.

With RRIRYRPPRLPRPRPRPDLSPRP, the “shrunken log2 fold change” value was -0.025.

On to RRIRHRPPRLPRPRPRPLMAPRP, for which the “shrunken log2 fold change” value is -0.206.

Regarding RRIRMRPPRLPRPRPRPWNTPRP, the “shrunken log2 fold change” value was 0.000609.

Regarding RRIRNRPPRLPRPRPRPHKSPRP, the “shrunken log2 fold change” value is -0.298.

For RRIRTRPPRLPRPRPRPVNKPRP, the “shrunken log2 fold change” value stood at 0.0243.

Regarding RRIRARPPRLPRPRPRPKQEPRP, the “shrunken log2 fold change” value turned out to be 0.254.

Regarding RRIRGRPPRLPRPRPRPPNTPRP, the “shrunken log2 fold change” value was 0.516.

Consider RRIRKRPPRLPRPRPRPRHIPRP, for which the “shrunken log2 fold change” value was -0.0145.

As to RRIRLRPPRLPRPRPRPMLPPRP, the “shrunken log2 fold change” value was -0.164.

For the sequence RRIRQRPPRLPRPRPRPADHPRP, the “shrunken log2 fold change” value is -0.0888.

For RRIRVRPPRLPRPRPRPLQVPRP, the “shrunken log2 fold change” value was -0.0194.

For the sequence RRIRHRPPRLPRPRPRPMHFPRP, the “shrunken log2 fold change” value was -0.0161.

RRIRPRPPRLPRPRPRPLWPPRP: the “shrunken log2 fold change” value stood at 0.325.

Turning to RRIRSRPPRLPRPRPRPPKFPRP, the “shrunken log2 fold change” value was -0.479.

As for RRIRQRPPRLPRPRPRPKTLPRP, the “shrunken log2 fold change” value was -0.156.

RRIRCRPPRLPRPRPRPWRMPRP: the “shrunken log2 fold change” value is -0.116.

Take RRIRPRPPRLPRPRPRPKSIPRP: the “shrunken log2 fold change” value is -0.352.

As to RRIRCRPPRLPRPRPRPCAVPRP, the “shrunken log2 fold change” value is -0.29.

For RRIRHRPPRLPRPRPRPPIWPRP, the “shrunken log2 fold change” value was determined as 0.324.

With RRIRRRPPRLPRPRPRPNCNPRP, the “shrunken log2 fold change” value is -0.0828.

Regarding RRIRHRPPRLPRPRPRPKSAPRP, the “shrunken log2 fold change” value was -0.0502.

In the case of RRIRFRPPRLPRPRPRPGWYPRP, the “shrunken log2 fold change” value was -0.463.

Take RRIRYRPPRLPRPRPRPLASPRP: the “shrunken log2 fold change” value is -0.556.

For RRIRRRPPRLPRPRPRPFGFPRP, the “shrunken log2 fold change” value was 0.197.

For RRIRWRPPRLPRPRPRPVKDPRP, the “shrunken log2 fold change” value was -0.0234.

Take RRIRTRPPRLPRPRPRPMAEPRP: the “shrunken log2 fold change” value stood at 0.117.

In the case of RRIRCRPPRLPRPRPRPLLTPRP, the “shrunken log2 fold change” value worked out at 0.00188.

With RRIRRRPPRLPRPRPRPIRNPRP, the “shrunken log2 fold change” value stood at 0.113.
